Source: US20130101582A1, “Tiki1 and Tiki2, Wnt Inhibitors” (CHILDREN'S MEDICAL CENTER CORPORATION, priority 2010, published 2013)

Tests used:
[1] = target: T1, Wnt3a (Mus musculus, UniProt P27467); test: Acyl-biotinyl exchange (ABE) analysis of Wnt3a produced from Tiki2-expressing cells; format: cell-based; set-up: expressed in transfected cells; host or cells: mouse L cells (Wnt3a-expressing); HEK293T; settings: compared to Wnt3a from control cells
Excerpt: FIG. 6C is a gel showing the results of Acyl-biotinyl exchange (ABE) analysis of control Wnt3a or Wnt3a produced from Tiki2-expressing cells. Biotinylation of Wnt3a secreted from Tiki2-expressing cells was much reduced compared to that of Wnt3a from control cells.
Biotinylation of Wnt3a secreted in the presence of Tiki2 was much reduced compared to that of Wnt3a from control cells (FIG. 6C). This reduction of available thioester linkage indicates depalmitoylation of Wnt3a at a cysteine residue, e.g., C77, in the presence of Tiki2

[2] = target: T2, LRP6N-IgG (Homo sapiens, UniProt O75581); test: Binding of Wnt3a CM to LRP6N-IgG, protein G precipitation
T2 construct: using the extracellular domain of mouse Fz8 (mFz8CRD-IgG) or LRP6 (LRP6N-IgG)
T2 sequence (O75581 20-1370 limits assumed): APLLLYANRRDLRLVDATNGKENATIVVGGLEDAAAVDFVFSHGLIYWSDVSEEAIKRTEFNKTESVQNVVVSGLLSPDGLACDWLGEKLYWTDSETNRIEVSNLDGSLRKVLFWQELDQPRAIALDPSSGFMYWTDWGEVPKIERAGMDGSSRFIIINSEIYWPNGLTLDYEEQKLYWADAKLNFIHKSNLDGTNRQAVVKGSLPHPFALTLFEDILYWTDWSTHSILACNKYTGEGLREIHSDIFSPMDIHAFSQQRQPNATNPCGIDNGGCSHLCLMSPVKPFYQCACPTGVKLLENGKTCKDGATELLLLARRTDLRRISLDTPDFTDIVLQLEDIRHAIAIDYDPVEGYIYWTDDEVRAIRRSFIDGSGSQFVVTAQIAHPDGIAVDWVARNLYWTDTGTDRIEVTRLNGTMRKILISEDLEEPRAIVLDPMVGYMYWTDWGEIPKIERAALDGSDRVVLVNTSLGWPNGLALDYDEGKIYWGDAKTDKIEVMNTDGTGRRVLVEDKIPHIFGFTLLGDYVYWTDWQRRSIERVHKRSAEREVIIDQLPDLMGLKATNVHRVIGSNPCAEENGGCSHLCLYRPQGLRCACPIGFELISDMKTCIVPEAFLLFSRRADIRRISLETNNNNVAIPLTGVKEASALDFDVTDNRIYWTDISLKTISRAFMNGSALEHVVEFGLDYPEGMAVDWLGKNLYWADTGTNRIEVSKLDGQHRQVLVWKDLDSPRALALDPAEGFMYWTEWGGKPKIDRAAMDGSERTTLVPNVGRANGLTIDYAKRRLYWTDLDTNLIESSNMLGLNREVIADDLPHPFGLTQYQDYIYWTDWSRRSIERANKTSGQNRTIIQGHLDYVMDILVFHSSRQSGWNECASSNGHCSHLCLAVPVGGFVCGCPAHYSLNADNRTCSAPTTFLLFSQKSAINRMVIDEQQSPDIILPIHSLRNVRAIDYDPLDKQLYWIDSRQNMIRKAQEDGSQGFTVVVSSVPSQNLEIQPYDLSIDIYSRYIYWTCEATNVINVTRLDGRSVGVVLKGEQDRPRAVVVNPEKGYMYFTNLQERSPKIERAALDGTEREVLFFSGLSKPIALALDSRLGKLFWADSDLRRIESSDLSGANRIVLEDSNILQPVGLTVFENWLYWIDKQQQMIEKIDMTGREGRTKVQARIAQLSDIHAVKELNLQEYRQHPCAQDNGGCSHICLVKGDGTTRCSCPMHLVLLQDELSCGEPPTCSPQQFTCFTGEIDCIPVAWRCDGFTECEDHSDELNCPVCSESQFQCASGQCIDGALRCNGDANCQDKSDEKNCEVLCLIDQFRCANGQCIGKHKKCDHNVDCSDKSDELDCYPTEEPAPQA
Procedure: Wnt3a CM was incubated with LRP6N-IgG or mFz8CRD-IgG. The protein complexes were precipitated by protein G agarose and subjected for Western blotting.
As Tiki proteins are related to bacterial proteins of unknown function, it was speculated that Tiki may antagonize Wnt signaling through a novel mechanism, possibly in an enzymatic fashion. Human Tiki2 was stably expressed in L cells or Wnt3a-expressing L cells (human Tiki1 was poorly expressed in L cells). […] In fact Wnt3a CM restored beta-catenin stabilization in Wnt3a-expressing cells that also expressed Tiki2 (FIG. 5A).

[3] = system: Wnt3a signaling; test: TOPFLASH reporter assay, Wnt3a co-transfected with Tiki1 or Tiki2 in HEK293T cells; format: cell-based, human
Excerpt: Wnt3a and Tiki1 or Tiki2 were co-transfected. The TOPFLASH reading (normalized to Renilla) in Wnt3a alone was set as 100. DNA transfection amounts are shown per well in a standard 24-well plate format. Representative data from one of three independent experiments is shown.
The enlarged head phenotype by Tiki1 overexpression is indistinguishable from that by overexpression of Dkk1, a Wnt/LRP6 antagonist (MacDonald, B. T. et al., Dev Cell 17, 9-26 (2009); Glinka, A. et al., Nature 391, 357-362 (1998)). […] Thus Tiki1 likely acts at or upstream of Wnt receptors. […] Xenopus Tiki2, and human Tiki1 and Tiki2 also behaved as Wnt antagonists in Xenopus embryos, HEK293T cells (FIG. 2C) and mouse L cells (FIG. 5A).

[4] = target: T1, Wnt3a; test: Metabolic labeling (az-15 / 35S) to quantify Wnt3a acylation in HEK293T cells; format: cell-based; set-up: expressed in transfected cells; host or cells: HEK293T; settings: co-expressed with Wnt3a in HEK293T cells; versus GFP control
Procedure: FIG. 6E is a gel showing that Tiki2, but not the control GFP, reduces Wnt3a acylation in HEK293T cells (Top panel). The total amount of Wnt3a is constant (bottom panel).
Metabolic labeling was performed to quantify Wnt3a acylation. Wnt3a co-expressed with GFP (control) or hTiki2 in HEK293T cells was metabolically labeled with an azido-palmitic acid analog (az-15) and [^35S]-Methionine/Cysteine. Wnt3a secreted in the culture medium was immunoprecipitated and subjected to click chemistry reaction using the Rhodamine-labeled ALK reagent (ALK-Rho), which reacts with az-15 (Charron G et al., JACS 131, 4967, 2009). The fluorescent signal indicates the acylation amount of Wnt3a whereas ^35S signal indicates the total amount of Wnt3a protein (FIG. 6E). […] Thus the maximal reduction of acylation by Tiki2 is expected to be 50% if the deacylation is complete and there are only two acylation sites. The 31% reduction we observed is consistent with the possibility of three acylation sites, although it is also possible that there are only two acylation sites in Wnt3a, and Tiki2 deacylation of one of these two sites was incomplete in our experiment.

T1 sequence (P27467 19-352): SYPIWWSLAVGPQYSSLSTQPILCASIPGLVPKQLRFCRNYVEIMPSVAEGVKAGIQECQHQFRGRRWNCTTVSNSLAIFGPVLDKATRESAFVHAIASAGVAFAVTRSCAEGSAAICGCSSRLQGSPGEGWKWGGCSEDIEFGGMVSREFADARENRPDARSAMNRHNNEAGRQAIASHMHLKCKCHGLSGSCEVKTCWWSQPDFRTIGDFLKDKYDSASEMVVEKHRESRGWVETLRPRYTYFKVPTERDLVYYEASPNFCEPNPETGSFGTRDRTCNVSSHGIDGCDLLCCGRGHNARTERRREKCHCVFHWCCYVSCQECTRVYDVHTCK

B1: Tiki2: Human Tiki2 (XP 371250/LOC388630) (SEQ ID NO:2), expressed in L or HEK293T cells (protein, listed as Homo sapiens)
chain: MHAALAGPLLAALLATARARPQPPDGGQCRPPGSQRDLNSFLWTIRRDPPAYLFGTIHVPYTRVWDFIPDNSKAAFQASTRVYFELDLTDPYTISALASCQLLPHGENLQDVLPHELYWRLKRHLDYVKLMMPSWMTPAQRGKGLYADYLFNAIAGNWERKRPVWVMLMVNSLTERDVRFRGVPVLDLYLAQQAEKMKKTTGAVEQVEEQCHPLNNGLNFSQVLFALNQTLLQQESVRAGSLQASYTTEDLIKHYNCGDLSAVIFNHDTSQLPNFINTTLPPHEQVTAQEIDSYFRQELIYKRNERMGKRVMALLRENEDKICFFAFGAGHFLGNNTVIDILRQAGLEVDHTPAGQAIHSPAPQSPAPSPEGTSTSPAPVTPAAAVPEAPSVTPTAPPEDEDPALSPHLLLPDSLSQLEEFGRQRKWHKRQSTHQRPRQFNDLWVRIEDSTTASPPPLPLQPTHSSGTAKPPFQLSDQLQQQDPPGPASSSAPTLGLLPAIATTIAVCFLLHSLGPS
[1]
  Biotinylation of secreted Wnt3a in ABE assay: much reduced
[2]
  Binding of Wnt3a secreted from Tiki2-expressing cells to LRP6 (LRP6N-IgG): failed to bind to either Fz or LRP6
[3]
  Wnt3a signaling, TOPFLASH reporter: inhibit Wnt3a signaling
[4]
  Reduction of Wnt3a acylation: about 31%
